Test results reported in patent US20260232820A1 (MEDICENNA THERAPEUTICS, published 2026).

T1: IL-13Rα2 on human A375 and U87 cells (human, UniProt Q14627 27-380)
T1 sequence (looked up): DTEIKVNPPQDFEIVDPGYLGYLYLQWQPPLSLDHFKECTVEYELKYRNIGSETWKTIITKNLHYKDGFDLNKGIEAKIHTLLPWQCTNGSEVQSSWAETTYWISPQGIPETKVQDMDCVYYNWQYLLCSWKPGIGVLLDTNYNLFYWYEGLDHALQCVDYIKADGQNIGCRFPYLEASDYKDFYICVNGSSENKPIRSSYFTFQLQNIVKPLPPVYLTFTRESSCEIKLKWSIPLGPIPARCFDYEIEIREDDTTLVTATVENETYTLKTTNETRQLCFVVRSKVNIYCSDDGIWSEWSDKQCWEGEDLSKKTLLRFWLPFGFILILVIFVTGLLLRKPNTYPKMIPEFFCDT

B1: MDNA132.15-PE (other)
chain: GPGPVPPSTAHRELIRELVNITQNQKAPLCNGSMVWSINLTAGMYCAALESLINVSGCSAIEKTQRMLSGFCPHKVSAGQFSSLHVTGRKIEVAQFVKDLLLHLKKLFKEGQFNASGGPEGGSLAALTAHQACHLPLETFTRHRQPRGWEQLEQCGYPVQRLVALYLAARLSWNQVDQVIRNALASPGSGGDLGEAIREQPEQARLALTLAAAESERFVRQGTGNDEAGAANGPADSGDALLERNYPTGAEFLGDGGDVSFSTRGTQNWTVERLLQAHRQLEERGYVFVGYHGTFLEAAQSIVFGGVRARSQDLDAIWRGFYIAGDPALAYGYAQDQEPDARGRIRNGALLRVYVPRSSLPGFYRTSLTLAAPEAAGEVERLIGHPLPLRLDAITGPEEEGGRLETILGWPLAERTVVIPSAIPTDPRNVGGDLDPSSIPDKEQAISALPDYASQPGKPPKDEL
B2: cpMDNA132.15-PE (other)
chain: MTAGMYCAALESLINVSGCSAIEKTQRMLSGFCPHKVSAGQFSSLHVTGRKIEVAQFVKDLLLHLKKLFKEGQFNGGNGGPGPVPPSTAHRELIRELVNITQNQKAPLCNGSMVWSINLASGGPEGGSLAALTAHQACHLPLETFTRHRQPRGWEQLEQCGYPVQRLVALYLAARLSWNQVDQVIRNALASPGSGGDLGEAIREQPEQARLALTLAAAESERFVRQGTGNDEAGAANGPADSGDALLERNYPTGAEFLGDGGDVSFSTRGTQNWTVERLLQAHRQLEERGYVFVGYHGTFLEAAQSIVFGGVRARSQDLDAIWRGFYIAGDPALAYGYAQDQEPDARGRIRNGALLRVYVPRSSLPGFYRTSLTLAAPEAAGEVERLIGHPLPLRLDAITGPEEEGGRLETILGWPLAERTVVIPSAIPTDPRNVGGDLDPSSIPDKEQAISALPDYASQPGKPPKDEL
B3: human IL-13Rα1 (receptor, UniProt P78552 22-343, looked up)
chain: GGGGAAPTETQPPVTNLSVSVENLCTVIWTWNPPEGASSNCSLWYFSHFGDKQDKKIAPETRRSIEVPLNERICLQVGSQCSTNESEKPSILVEKCISPPEGDPESAVTELQCIWHNLSYMKCSWLPGRNTSPDTNYTLYYWHRSLEKIHQCENIFREGQYFGCSFDLTKVKDSSFEQHSVQIMVKDNAGKIKPSFNIVPLTSRVKPDPPHIKNLSFHNDDLYVQWENPQNFISRCLFYEVEVNNSQTETHNVFYVQEAKCENPEFERNVENTSCFMVPGVLPDTLNTVRIRVKTNKLCYEDDKLWSNWSQEMSIGKKRNST
notes: also called IL-13αR1
B4: human IL-13Rα2 (receptor, UniProt Q14627 27-343, looked up)
chain: DTEIKVNPPQDFEIVDPGYLGYLYLQWQPPLSLDHFKECTVEYELKYRNIGSETWKTIITKNLHYKDGFDLNKGIEAKIHTLLPWQCTNGSEVQSSWAETTYWISPQGIPETKVQDMDCVYYNWQYLLCSWKPGIGVLLDTNYNLFYWYEGLDHALQCVDYIKADGQNIGCRFPYLEASDYKDFYICVNGSSENKPIRSSYFTFQLQNIVKPLPPVYLTFTRESSCEIKLKWSIPLGPIPARCFDYEIEIREDDTTLVTATVENETYTLKTTNETRQLCFVVRSKVNIYCSDDGIWSEWSDKQCWEGEDLSKKTLLR
notes: also called IL-13Ra2; human IL-13 decoy receptor

Experiments:
[1] = target: T1, IL-13Rα2 on human A375 and U87 cells; test: cell-based or functional assay
[2] = target: IL-13Rα2 on engineered EMT6 cells (EMT6-IL13Rα2); test: cell-based or functional assay
[3] = target: T1, IL-13Rα2 on human A375 and U87 cells; test: cell-based or functional assay; remark: listed apart in the source
[4] = target: IL-13Rα2 on engineered EMT6 cells (EMT6-IL13Rα2); test: cell-based or functional assay; remark: listed apart in the source
Fc-IL13 (1:1 KIH) = target: T2, Fc-IL13 (1:1 KIH) (human, UniProt P35225 34-146); test: SPR
T2 construct: also called Fc-IL13 KIH
Method: Receptor binding was assessed using surface plasmon resonance (SPR) in which test constructs (i.e., Fc-MDNA132) were bound onto SPR chip surface and receptors (i.e., IL-13Rα1 and IL-13Rα2) were used as flow analytes (data not shown).
Representative SPR sensorgrams of Fc-MDNA132 and Fc-51.13 binding to […] and IL-13Rα2 is shown in (data not shown) and KD values are tabulated in Table 12. Variants contain the 5 core mutations of MDNA132 and an added mutation at amino acid position indicated in the name of the constructs.

| Binder | IC50 (pM), cytotoxicity assay, A375 cells, 48 h incubation [1] | IC50 (pM), cytotoxicity assay, U87 cells, 48 h incubation [1] | IC50 (pM), cytotoxicity assay, EMT6-IL13Rα2 cells, 48 h incubation [2] | IC50 (pM), cytotoxicity assay, A375 cells, 72 h incubation [3] | IC50 (pM), cytotoxicity assay, U87 cells, 72 h incubation [3] | IC50 (pM), cytotoxicity assay, EMT6-IL13Rα2 cells, 72 h incubation [4] | Kd (Fc-IL13 (1:1 KIH)) |
| --- | --- | --- | --- | --- | --- | --- | --- |
| B1 | 1.02 pM | 11.4 pM | 2.1 pM | 1.1 pM | 208 pM | 1.13 pM | – |
| B2 | 1.5 pM | 4.2 pM | 1 pM | 1.3 pM | 7.6 pM | 1 pM | – |
| B3 | – | – | – | – | – | – | 470 nM |
| B4 | – | – | – | – | – | – | 0.15 nM |
